In general, Cmax refers to the peak of the concentration-time curve. In general, half-life refers to the time needed for the level to fall by half in the phase considered. A low value points to rapid decline. Broadly, the MRT is the average time that molecules of a dose stay in the body. For orientation: Tmax means the time from dosing to the highest level. By Vss is commonly meant the apparent volume that relates the amount in the body to the concentration in plasma or blood. A low value points to little distribution into tissue. Usually Vz stands for a proportionality between amount in the body and measured concentration, not a real space. Read a low Vz as confinement near the circulation.

A short description of series [1]: Pharmacokinetics of 2B5.8.0 in Balb/C mice. Type of series: in vivo. As to the method: Pharmacokinetic studies with mouse mAb 2B5.8.0 were carried out in Sprague Dawley rats and Balb/C mice. Male and female rats and mice were dosed intravenously or intraperitoneally (mice only) with a single dose of 4 mg/kg 2B5.8.0 and serum samples were analyzed using antigen capture based chemiluminescent MSD (Meso Scale Discovery) method (Meso Scale Discovery, Gaithersburg, Md.). Pharmacokinetic parameters were calculated by non-compartmental analysis using WinNonlin.
The following MSD assay was used to measure antibody concentration in rat and mouse serum. MSD streptavidin plates (Meso Scale Discovery, Gaithersburg, Md.) were washed with phosphate buffered saline containing 0.05% Tween-20 (Sigma, St. Louis, Mo.). Plates were blocked with 250 μL/well blocking solution (MSD Block, Meso Scale Discovery, diluted to 3% final concentration in PBS) for 1 hour, covered, with shaking (600 rpm) at room temperature. After washing, 70 μL of biotinylated PGE2 (Prostoglandin E2-biotinamide, Cayman Chemical, Ann Arbor, Mich., cat# 10006987, lot# 190831-191028, 0.01 ug/mL in assay buffer) was added to each well. The plates were covered and incubated with shaking (600 rpm) for 1 hour at room temperature
(§1) Prior to analysis, rat and mouse serum samples were thawed on ice, mixed gently, and centrifuged at 14,000 rpm for 3 minutes at 4° C. in an eppendorf centrifuge. Standard curve and control samples were prepared in rat and mouse serum. A Tecan Evo automated liquid handling station was used to dilute standard curve, high, medium, and low controls, and serum samples in assay buffer, keeping 1% final serum concentration constant. MSD plates were washed again and study samples, standard curve samples and blanks, as well as high, medium, and low controls were added (70 μL/well). The plates were covered, and incubated for 1 hour with shaking (600 rpm) at room temperature.
After incubation, the MSD plates were washed, and 70 μL of sulfo-tagged goat anti-mouse IgG (Meso Scale Discovery; diluted to 1 ug/mL in assay buffer) was added to each well. The MSD plates were covered, and incubated with shaking (600 rpm) for 1 hour at room temperature, then the plates were washed and developed with 2× Read Buffer (Meso Scale Discovery). Chemilumeniscence was measured within ten minutes on the MSD Sector Imager 6000.
(§2) Standard curves were analyzed using four-parameter logistic fit and sample concentrations were calculated by XLfit4 software version 2.2.1 Build 16, ([…].). Pharmacokinetic parameters were calculated for each animal using Winonlin software version 5.0.1 (Pharsight Corporation, Mountain View, Calif.) by noncompartmental analysis.
Male and female Balb/c mice (weighing approximately 0.025 kg) were purchased from Charles River Laboratories (Wilmington, Mass.). The animals were allowed food and water ad libitum. Blood samples were collected (0.2 mL from the rats via the tail vein and by cardiac puncture from the mice) at various timepoints (5 mice at each timepoint) allowed to clot for 30 minutes at room temperature, centrifuged for 3 minutes at 13,200 rpm, the serum transferred to eppendorf tubes and stored frozen at −80° C.

The nature of series [2]: Pharmacokinetics of hu2B5.7 and hu2B5.4 in Sprague-Dawley rats. The following applies: male Sprague-Dawley rats, IV 4 mg/kg. The format is in vivo. How it is done:
Pharmacokinetic parameters were calculated by non-compartmental analysis using WinNonlin.
MSD streptavidin plates (Meso Scale Discovery) were washed with phosphate buffered saline containing 0.05% Tween-20 (diluted from 10×PBS, Abbott Bioresearch Center, Media Room, Worcester, Mass. and Tween-20, Sigma, St. Louis, Mo.). Plates were blocked with 250 μL/well blocking solution (MSD Block, Meso Scale Discovery, diluted to 3% final concentration in PBS) for 1 hour, covered, with shaking (600 rpm) at room temperature. After washing, 70 μL of biotinylated PGE2 (Prostoglandin E2-biotinamide, Cayman Chemical, Ann Arbor, Mich., cat# 10006987, lot# 190831-191028; 0.01 ug/mL in assay buffer) was added to each well. The plates were covered and incubated with shaking (600 rpm) for 1 hour at room temperature.
as §1, with “rat” for “rat and mouse”, “serum.” for “serum. A”
After incubation, the MSD plates were washed, and 70 μL sulfo-tagged goat anti-human IgG (Meso Scale Discovery; diluted to 1 ug/mL in assay buffer) was added to each well. The MSD plates were covered, and incubated with shaking (600 rpm) for 1 hour at room temperature, then the plates were washed and developed with 2× Read Buffer (Meso Scale Discovery). Chemilumeniscence was measured within ten minutes on the MSD Sector Imager 6000.
as §2
Surgically altered jugular vein cannulated, JVC) male Sprague-Dawley Rats (approximately seven weeks old, weighing 240-390 grams) were purchased from Charles River Laboratories (Wilmington, Mass.). The animals were housed in rooms maintained at constant temperature and humidity under a 12 hour light/dark cycle, fed with normal rodent chow and were allowed food and water ad libitum. Hydration and clinical conditions of the animals were monitored daily.
0.2 mL blood samples were collected from the rats at various timepoints, allowed to clot for 30 minutes at room temperature, centrifuged for 3 minutes at 13,200 rpm, the serum transferred to eppendorf tubes and stored frozen at −80° C.

The mark [3] stands for this setting: mice, intraperitoneal, both sexes.

B1: 2B5-8.0: recombinant anti-PGE2 antibody from solved 2B5 sequence; VH SEQ ID NO 42, VL SEQ ID NO 43 (antibody, V domains shown)
VH: QVQLQQSGPELVRPGSSVKISCKASGYTFTKYWLGWVKQRPGHGLEWIGDIYPGYDYTHYNEKFKDKATLTVDTSSSTAYMQLSSLTSEDSAIYYCARSDGSSTYWGQGTLVTVSA
VL: DVLMTQTPLSLPVSLGDQASISCTSSQNIVHSNGNTYLEWYLQRPGQSPKLLIYKVSNRFSGVPDRFSGSGSGTVFTLKISRVEAEDLGVYYCFQVSHVPYTFGGGTKLEIKR
For the molecule B1, in series [1] (setting [3]), the peak concentration (Cmax) was in the range of 37000 to 49000 ng/mL, the bioavailability is listed as 65.8-72.0% and the half-life was in the range of 13.8 to 16.1 days. Besides, in series [1] (mouse, female, IP 4 mg/kg), the “AUC0-∞” value was 16100 µg·h/mL, the “Cmax” value came out at 49400 ng/mL, the “F (%)” value turned out to be 65.8% and the “MRT” value was determined as 19.3 days. In addition, in series [1] (mouse, female, IP 4 mg/kg), the time of peak concentration (Tmax) stood at 1 days and the “T½” value stood at 13.8 days. In addition, in series [1] (mouse, female, IV 4 mg/kg), the “AUC0-∞” value stood at 24500 µg·h/mL, the “CL” value turned out to be 3.84 mL/day/kg, the mean residence time MRT is 22.8 days and the “T½” value is 16.2 days. In series [1] (mouse, female, IV 4 mg/kg), the “Vss” value came to 0.089 L/kg and the “Vz” value stood at 0.092 L/kg. For the same molecule, in series [1] (mouse, male, IP 4 mg/kg), the “AUC0-∞” value is 19400 µg·h/mL, the “Cmax” value turned out to be 37300 ng/mL, the “F (%)” value is reported as 72% and the “MRT” value stood at 23.4 days. Further, in series [1] (mouse, male, IP 4 mg/kg), the “Tmax” value is 2 days and the “T½” value is 16.1 days. For the same molecule, in series [1] (mouse, male, IV 4 mg/kg), the “AUC0-∞” value was 26900 µg·h/mL, the “CL” value amounted to 3.6 mL/day/kg, the “MRT” value was 37.5 days and the “T½” value amounted to 26.3 days. In addition, in series [1] (mouse, male, IV 4 mg/kg), the distribution volume (Vss) was found to be 0.134 L/kg and the “Vz” value turned out to be 0.135 L/kg.

B2: Hu2B5.4: humanized 2B5-8.0; VH SEQ ID NO 66, VL SEQ ID NO 67 (antibody, V domains shown)
VH: EVQLVQSGAEVKKPGASVKVSCKASGYTFTKYWLGWVRQAPGQGLEWIGDIYPGYDYTHYNEKFKDRATLTVDTSTSTAYMELSSLRSDDTAVYYCARSDGSSTYWGQGTLVTVSS
VL: DVLMTQTPLSLPVTPGEPASISCTSSQNIVHSNGNTYLEWYLQKPGQSPQLLIYKVSNRFSGVPDRFSGSGSGTDFTLKISRVEAEDVGVYYCFQVSHVPYTFGGGTKVEIKR
B2: in series [2], the “AUC0-∞” value stood at 11800 ± 2000 µg·h/mL, the “CL” value was 8.4 ± 1.7 mL/day/kg, the mean residence time MRT came to 18.0 ± 6.0 days and the “T½” value is 12.4 days. Moreover, in series [2], the “Vss” value amounted to 0.145 ± 0.0318 L/kg and the “Vz” value worked out at 0.143 ± 0.0402 L/kg.

Source of the values: patent publication US8624002B2, “Prostaglandin E2 binding proteins and uses thereof” (AbbVie, Inc., priority 2008, dated 2014).
